Data as given in paper PMC9437119.

Target: T1, Flag-tagged human Fis1 (WT) (human), Q9Y3D6
T1 chain: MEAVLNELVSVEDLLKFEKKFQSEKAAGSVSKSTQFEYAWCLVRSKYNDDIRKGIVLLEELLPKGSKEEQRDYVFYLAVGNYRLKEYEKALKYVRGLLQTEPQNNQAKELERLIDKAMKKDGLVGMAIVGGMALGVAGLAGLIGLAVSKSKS
Assay: SDS-resistant oligomers on SDS-PAGE immunoblot of the immunoprecipitate; anti-myc immunoprecipitate of the Mid51/Fis1 complex from HeLa lysate heated 20 min at 55°C, 4-20% Tris-Glycine SDS-PAGE; SDS-resistant complexes detected with anti-myc (Mid51 species) or anti-Flag (Fis1 species); species normalized to monomer
Settings: remark: other sources report otherwise

stoichiometry N: 4
B1: Flag-tagged human Fis1 (WT), Q9Y3D6 1-152 (natural protein)
chain: T1 chain
